In assay [1] the target is T1, (PR)15: H-C(PR)15-OH.
T1 construct: synthetic, not coupled to BSA; also called poly-PR DPR protein peptide
T1 peptide: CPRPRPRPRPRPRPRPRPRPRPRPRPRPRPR
Put plainly: indirect ELISA, coated peptide. The method, then:
(§1) In brief, dipeptide repeat proteins were synthesized and purified by Schafer-N(Copenhagen, Denmark): (GA)₁₅: H-CHHHHHH(GA)₁₅-OH; (GP)₁₅: H-C(GP)₁₅-OH; (GR)₁₅: H-C(GR)₁₅-OH; (PA)₁₅: H-C(PA)₁₅-OH; (PR)₁₅: H—C(PR)₁₅-OH. 96-well microplates (Corning Incorporated, Corning, USA) were coated with dipeptide repeat protein peptides at a concentration of either 5 μg/ml or 20 μg/ml in coating buffer (15 mM Na₂CO₃, 35 mM NaHCO₃, pH 9.42). Non-specific binding sites were blocked for 1 h at room temperature with PBS/0.1% Tween®-20 containing 2% BSA (Sigma-Aldrich, Buchs, Switzerland). Primary antibodies were diluted to the indicated concentrations and incubated for 1 h at room temperature, followed by incubation with a donkey anti-human IgG Fcγ-specific antibody conjugated with HRP (Jackson ImmunoResearch Laboratories, Inc., West Grove, USA). Binding was determined by measurement of HRP activity in a standard colorimetric assay. EC₅₀ values were estimated by non-linear regression using GraphPad Prism software (San Diego, USA). The binding specificity and EC₅₀ of human-derived antibodies for C9orf72 dipeptide repeat protein peptides (GA)₁₅, (GP)₁₅, (GR)₁₅, (PA)₁₅ and (PR)₁₅ were determined by indirect ELISA.
In general terms: An ELISA detects its analyte on a solid surface through an enzyme-linked reagent.

Assay [2] has as its target T2, (PA)15: H-C(PA)15-OH.
T2 construct: synthetic, not coupled to BSA; also called poly-PA DPR protein peptide
T2 peptide: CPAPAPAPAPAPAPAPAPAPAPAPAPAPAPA
Put plainly: indirect ELISA, coated peptide. Here is the method: as §1

Assay [3] deals with T3, (GR)15: H-C(GR)15-OH.
T3 construct: synthetic, not coupled to BSA; also called poly-GR DPR protein peptide
T3 peptide: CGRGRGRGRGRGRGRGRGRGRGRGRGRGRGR
Put plainly: indirect ELISA, coated peptide. Here is the method:
as §1

Assay [4] deals with T4, BSA-coupled (GP)15 DPR protein peptide (bovine, conjugated via a bifunctional linker (SMCC) to bovine serum albumin).
T4 construct: also called BSA-(GP)15
T4 sequence (P02769 25-607 limits assumed): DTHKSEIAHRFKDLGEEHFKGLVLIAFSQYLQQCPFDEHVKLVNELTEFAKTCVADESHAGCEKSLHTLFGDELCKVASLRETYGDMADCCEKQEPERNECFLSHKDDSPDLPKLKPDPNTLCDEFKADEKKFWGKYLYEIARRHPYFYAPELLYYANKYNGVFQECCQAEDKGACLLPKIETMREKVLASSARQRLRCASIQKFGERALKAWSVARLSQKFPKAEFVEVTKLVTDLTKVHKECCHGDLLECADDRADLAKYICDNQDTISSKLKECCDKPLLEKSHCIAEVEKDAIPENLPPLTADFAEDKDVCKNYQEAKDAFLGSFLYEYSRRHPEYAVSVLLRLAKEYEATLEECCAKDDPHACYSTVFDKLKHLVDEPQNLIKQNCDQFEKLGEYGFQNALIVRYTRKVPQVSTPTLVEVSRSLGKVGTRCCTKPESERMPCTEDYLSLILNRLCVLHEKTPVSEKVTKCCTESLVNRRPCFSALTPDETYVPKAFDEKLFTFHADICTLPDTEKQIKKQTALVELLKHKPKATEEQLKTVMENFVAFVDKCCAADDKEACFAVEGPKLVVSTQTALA
The assay is described as follows: indirect ELISA, BSA-coupled peptide coated, antibody titrated [also D00015 FIG. 3L]. The method, then: as §1, with “(PR)₁₅: H—C(PR)₁₅-OH. DPR protein peptides were then conjugated via a bifunctional linker (SMCC) to bovine serum albumin (BSA). 96-well microplates” for “(PR)₁₅: H—C(PR)₁₅-OH. 96-well microplates”, “coated with BSA-coupled or -uncoupled dipeptide repeat” for “coated with dipeptide repeat”, “and incubated 1 h” for “and incubated for 1 h”, “Diego, USA).” for “Diego, USA). The binding specificity and EC₅₀ of human-derived antibodies for C9orf72 dipeptide repeat protein peptides (GA)₁₅, (GP)₁₅, (GR)₁₅, (PA)₁₅ and (PR)₁₅ were determined by indirect ELISA.”

In assay [5] the target is T5, BSA-coupled (GR)15 DPR protein peptide (bovine, UniProt P02769 25-607, conjugated via a bifunctional linker (SMCC) to bovine serum albumin).
T5 construct: also called BSA-(GR)15
T5 sequence (P02769 25-607 limits assumed): as above
Put plainly: Western blot of BSA-coupled peptides. The method, then: (§2) Resolved proteins were then electroblotted (Novex® Semi-Dry Blotter, 1 h, 25V) on methanol-activated PVDF membranes (Immobilon®-P Transfer Membrane, Merck & Cie, Schaffhausen, Switzerland) by the use of Novex® NuPAGE® transfer buffer 2× (Life Technologies Europe B.V., Zug, Switzerland). Non-specific binding sites were blocked overnight at 4° C. (or alternatively for 1 h at room temperature) with PBS/0.1% Tween®-20 containing 2% BSA (Sigma-Aldrich, Buchs, Switzerland) (PBST). […] Membranes were washed three times in PBST for 15 min at RT and then incubated with a donkey anti-human IgG Fcγ-specific antibody conjugated with HRP (1:20000 or 1:10000 dilution, Jackson ImmunoResearch Laboratories, Inc., West Grove, USA) for 1 h at room temperature. Antibody binding was determined by membrane development using ECL and ImageQuant 350 detection (GE Healthcare, Otelfingen, Switzerland).
(§3) The binding specificity of the human-derived antibodies to BSA-coupled C9orf72 dipeptide repeat proteins (GA)₁₅, (GP)₁₅, (GR)₁₅, (PA)₁₅ and (PR)₁₅ was determined by Western blot analysis.
Background: Immunoblotting shows a protein as a band on a membrane.

Assay [6] deals with T6, BSA-coupled (PA)15 DPR protein peptide (bovine, UniProt P02769 25-607, conjugated via a bifunctional linker (SMCC) to bovine serum albumin).
T6 construct: also called BSA-(PA)15
T6 sequence (P02769 25-607 limits assumed): as above
Put plainly: Western blot of BSA-coupled peptides. Here is the method:
as §2, §3

For assay [7], the target named is T7, BSA-coupled (PR)15 DPR protein peptide (bovine, conjugated via a bifunctional linker (SMCC) to bovine serum albumin).
T7 construct: also called BSA-(PR)15
T7 sequence (P02769 25-607 limits assumed): as above
The assay is described as follows: Western blot of BSA-coupled peptides. The method, then:
as §2, §3

Assay [8] addresses T8, (GP)15: H-C(GP)15-OH.
T8 construct: synthetic, not coupled to BSA; also called poly-GP DPR protein peptide
T8 peptide: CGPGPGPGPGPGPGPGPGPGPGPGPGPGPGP
The assay is described as follows: indirect ELISA, uncoupled peptide coated, antibody titrated [also D00015 FIG. 3L]. Here is the method:
as §1, with “(PR)₁₅: H—C(PR)₁₅-OH. DPR protein peptides were then conjugated via a bifunctional linker (SMCC) to bovine serum albumin (BSA). 96-well microplates” for “(PR)₁₅: H—C(PR)₁₅-OH. 96-well microplates”, “coated with BSA-coupled or -uncoupled dipeptide repeat” for “coated with dipeptide repeat”, “and incubated 1 h” for “and incubated for 1 h”, “Diego, USA).” for “Diego, USA). The binding specificity and EC₅₀ of human-derived antibodies for C9orf72 dipeptide repeat protein peptides (GA)₁₅, (GP)₁₅, (GR)₁₅, (PA)₁₅ and (PR)₁₅ were determined by indirect ELISA.”

For assay [9], the target named is T9, (GA)15: H-CHHHHHH(GA)15-OH.
T9 construct: synthetic, not coupled to BSA; also called poly-GA DPR protein peptide
T9 peptide: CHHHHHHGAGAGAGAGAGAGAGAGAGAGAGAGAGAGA
Put plainly: indirect ELISA, uncoupled peptide coated, antibody titrated [also D00011 FIG. 2L]. The method, then:
as §1

The target of assay [10] is T4, BSA-coupled (GP)15 DPR protein peptide. Put plainly: Western blot, BSA-coupled peptide. Here is the method: as §2, §3
Assay [11] addresses T6, BSA-coupled (PA)15 DPR protein peptide. The assay is described as follows: Western blot, BSA-coupled peptide. The method, then: as §2, §3
The target of assay [12] is T8, (GP)15: H-C(GP)15-OH. Put plainly: indirect ELISA, coated peptide. Here is the method:
as §1

In assay [13] the target is transthyrethin (UniProt P02766 21-147). The assay is described as follows: indirect ELISA, coated protein. The method, then:
(§4) 96-well microplates (Corning) were coated with different target proteins at a concentration of 1-10 μg/ml in coating buffer (15 mM Na₂CO₃, 35 mM NaHCO₃, pH 9.42). Non-specific binding sites were blocked for 1 h at RT with PBS/0.1% Tween®-20 containing 2% BSA (Sigma-Aldrich, Buchs, Switzerland). […] Binding was determined using donkey anti-human IgG Fcγ-specific antibody conjugated with HRP (Jackson ImmunoResearch Laboratories, Inc., West Grove, USA) followed by measurement of HRP activity in a standard colorimetric assay. Signals for target protein were calculated in fold increase above median.

Assay [14] has as its target Tau (UniProt P10636-8 1-441, limits assumed). The assay is described as follows: indirect ELISA, coated protein. Here is the method: as §4
Assay [15] deals with T10, transactive response DNA binding protein 43 (UniProt Q13148 1-414, limits assumed).
T10 construct: also called TDP-43
T10 sequence (Q13148 whole entry): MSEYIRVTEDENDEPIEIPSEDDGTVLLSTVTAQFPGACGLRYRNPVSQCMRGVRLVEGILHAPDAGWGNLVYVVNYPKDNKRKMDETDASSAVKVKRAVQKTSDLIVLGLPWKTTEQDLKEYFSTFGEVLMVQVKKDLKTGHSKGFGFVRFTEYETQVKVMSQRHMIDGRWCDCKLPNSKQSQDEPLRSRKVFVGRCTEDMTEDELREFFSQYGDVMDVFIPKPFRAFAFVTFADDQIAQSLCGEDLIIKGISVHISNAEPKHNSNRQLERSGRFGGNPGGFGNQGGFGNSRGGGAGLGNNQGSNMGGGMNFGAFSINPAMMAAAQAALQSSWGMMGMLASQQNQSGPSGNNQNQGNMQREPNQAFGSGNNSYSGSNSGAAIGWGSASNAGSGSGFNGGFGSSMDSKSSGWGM
The assay is described as follows: indirect ELISA, coated protein. Here is the method: as §4

For assay [16], the target named is T11, full-length amyloid precursor protein (UniProt P05067 18-770, limits assumed).
T11 construct: also called flAPP
T11 sequence (P05067 18-770 limits assumed): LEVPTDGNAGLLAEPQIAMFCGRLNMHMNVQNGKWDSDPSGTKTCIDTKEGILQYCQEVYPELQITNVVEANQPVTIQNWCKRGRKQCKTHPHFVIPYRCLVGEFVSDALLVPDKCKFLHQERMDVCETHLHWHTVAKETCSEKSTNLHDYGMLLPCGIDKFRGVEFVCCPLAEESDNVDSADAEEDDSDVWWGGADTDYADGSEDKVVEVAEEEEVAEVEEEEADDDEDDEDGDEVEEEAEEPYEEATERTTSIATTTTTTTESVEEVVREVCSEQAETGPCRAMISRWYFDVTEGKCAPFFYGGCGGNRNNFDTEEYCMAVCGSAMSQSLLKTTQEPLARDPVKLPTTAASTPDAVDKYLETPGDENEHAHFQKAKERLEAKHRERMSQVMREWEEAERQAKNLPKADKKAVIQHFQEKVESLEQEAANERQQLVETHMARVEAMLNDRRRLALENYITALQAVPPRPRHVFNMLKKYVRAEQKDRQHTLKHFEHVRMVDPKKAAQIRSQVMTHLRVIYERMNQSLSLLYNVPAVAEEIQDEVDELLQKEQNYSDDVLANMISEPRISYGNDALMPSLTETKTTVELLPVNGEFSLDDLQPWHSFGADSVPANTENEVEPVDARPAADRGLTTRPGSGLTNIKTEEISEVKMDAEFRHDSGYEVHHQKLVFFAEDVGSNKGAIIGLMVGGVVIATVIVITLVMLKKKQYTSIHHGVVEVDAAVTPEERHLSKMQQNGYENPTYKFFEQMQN
The assay is described as follows: indirect ELISA, coated protein. The method, then:
as §4

For assay [17], the target named is T3, (GR)15: H-C(GR)15-OH. The assay is described as follows: indirect ELISA, uncoupled peptide coated, antibody titrated [also D00015 FIG. 3J]. The method, then:
as §1, with “(PR)₁₅: H—C(PR)₁₅-OH. DPR protein peptides were then conjugated via a bifunctional linker (SMCC) to bovine serum albumin (BSA). 96-well microplates” for “(PR)₁₅: H—C(PR)₁₅-OH. 96-well microplates”, “coated with BSA-coupled or -uncoupled dipeptide repeat” for “coated with dipeptide repeat”, “and incubated 1 h” for “and incubated for 1 h”, “Diego, USA).” for “Diego, USA). The binding specificity and EC₅₀ of human-derived antibodies for C9orf72 dipeptide repeat protein peptides (GA)₁₅, (GP)₁₅, (GR)₁₅, (PA)₁₅ and (PR)₁₅ were determined by indirect ELISA.”

For assay [18], the target named is T3, (GR)15: H-C(GR)15-OH. The assay is described as follows: indirect ELISA, coated uncoupled peptide. The method, then: as §1
In assay [19] the target is T7, BSA-coupled (PR)15 DPR protein peptide. Put plainly: indirect ELISA, BSA-coupled peptide coated, antibody titrated [also D00016 FIG. 3M]. Here is the method:
as §1, with “(PR)₁₅: H—C(PR)₁₅-OH. DPR protein peptides were then conjugated via a bifunctional linker (SMCC) to bovine serum albumin (BSA). 96-well microplates” for “(PR)₁₅: H—C(PR)₁₅-OH. 96-well microplates”, “coated with BSA-coupled or -uncoupled dipeptide repeat” for “coated with dipeptide repeat”, “and incubated 1 h” for “and incubated for 1 h”, “Diego, USA).” for “Diego, USA). The binding specificity and EC₅₀ of human-derived antibodies for C9orf72 dipeptide repeat protein peptides (GA)₁₅, (GP)₁₅, (GR)₁₅, (PA)₁₅ and (PR)₁₅ were determined by indirect ELISA.”

The target in assay [20] is T4, BSA-coupled (GP)15 DPR protein peptide. Put plainly: Western blot of BSA-coupled peptides. Here is the method: as §2, §3
Assay [21] has as its target T9, (GA)15: H-CHHHHHH(GA)15-OH. Put plainly: indirect ELISA, uncoupled peptide coated, antibody titrated [also D00011 FIG. 2M]. Here is the method:
as §1

The target in assay [22] is T2, (PA)15: H-C(PA)15-OH. The assay is described as above. The method, then:
as §1

The target in assay [23] is T1, (PR)15: H-C(PR)15-OH. Put plainly: indirect ELISA, uncoupled peptide coated, antibody titrated [also D00016 FIG. 3M]. Here is the method: as §1, with “(PR)₁₅: H—C(PR)₁₅-OH. DPR protein peptides were then conjugated via a bifunctional linker (SMCC) to bovine serum albumin (BSA). 96-well microplates” for “(PR)₁₅: H—C(PR)₁₅-OH. 96-well microplates”, “coated with BSA-coupled or -uncoupled dipeptide repeat” for “coated with dipeptide repeat”, “and incubated 1 h” for “and incubated for 1 h”, “Diego, USA).” for “Diego, USA). The binding specificity and EC₅₀ of human-derived antibodies for C9orf72 dipeptide repeat protein peptides (GA)₁₅, (GP)₁₅, (GR)₁₅, (PA)₁₅ and (PR)₁₅ were determined by indirect ELISA.”

Sequence of Tau (P10636 other isoform, or with tags, fused parts or gaps limits assumed): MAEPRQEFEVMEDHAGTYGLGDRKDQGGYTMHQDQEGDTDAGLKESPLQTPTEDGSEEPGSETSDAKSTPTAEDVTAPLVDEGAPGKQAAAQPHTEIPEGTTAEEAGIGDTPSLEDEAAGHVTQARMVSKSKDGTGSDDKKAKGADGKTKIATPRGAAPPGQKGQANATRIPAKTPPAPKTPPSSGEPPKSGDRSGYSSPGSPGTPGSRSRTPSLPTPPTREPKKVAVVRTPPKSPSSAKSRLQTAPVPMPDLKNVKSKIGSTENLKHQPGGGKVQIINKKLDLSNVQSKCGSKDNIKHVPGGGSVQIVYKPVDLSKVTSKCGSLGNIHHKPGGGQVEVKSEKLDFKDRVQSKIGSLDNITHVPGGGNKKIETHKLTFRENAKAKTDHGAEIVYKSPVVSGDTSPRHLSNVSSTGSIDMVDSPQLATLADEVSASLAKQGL

B1: NI-308.12A3 (antibody, V domains shown)
VH: EVQLVETGGGLVQPGGSLRLSCVGSGFLFSDFEMDWVRQAPGKGLEWISYISGDGNIIYQTDSVKGRFTISRDNAKNSLFLQMDSLTVEDTAVYYCARDARENCGGDCYSTSFDFWGQGTLVTVSS
VL: DIQMTQSPDSLAVSLGERATINCKSSQSLLYTANNRNYLAWYQKKAGQPPKLLIHWASTRASGVPDRFSGSGSGTDFILTISSLQAEDVAVYFCQHYYNSPRTFGQGTKVEIK
notes: Recombinant complete human IgG1, kappa
Usually EC50 stands for the concentration giving half of the maximal effect. A higher EC50 goes with a less potent agent. On to B1, for which the binding result in assay [1], in assay [2], in [3], in [5], in assay [6] and in assay [7] was “no binding” each time. Also, the EC50 in assay [4] worked out at 6.1 nM; in assay [8] it was 2.2 nM; in assay [9] it was 19 nM.

B2: NI-308.46F8 (antibody, V domains shown)
VH: QVQLVESGGGVVRPGGSLRLSCTASGFTFDEYGMSWVRQVPGKGLEWVSGINWNGATTRYADSVKGRFTISRDNAKNSLYLQMNSLRAEDTALYHCARDGCRNTSCYIWDWFDPWGQGTLVTVSS
VL: CQSVLTQPPSVSAAPGQKVTISCSGSSSNIGNNYVCWYQNLPGTAPKLLIYDDNKRPSGIPDRFSGSKSGTSATLGITGLQTGDEADYYCGTWDSSLSVVVFGGGTKLTVL
Regarding B2, the binding result in assay [10] is on record as “no binding (tested: 10 nM or 100 nM)”; in [11] it was “no binding (tested: 10 nM or 100 nM)”; in assay [2] it was “no binding”; in assay [12] it was “no binding”; in [13], “no binding (tested: 20 nM)”; in assay [14], “no binding (tested: 20 nM)”. For the same molecule, the binding result in assay [15] and in [16] was “no binding (tested: 20 nM)” in each case. The EC50 came to 90.3 nM in assay [17] and 40.6 nM in [18].

B3: NI-308.16C10 (antibody, V domains shown)
VH: EVQLVETGGGVVQPGMSLSLSCAATGFTFSSYGMHWVRQGPGKGPEWVAGIWYDGTNKYYGDSVTGRVTISRDNSKNTLFLQMINVRVEDTAVYYCVKDAERVQKWASYIMDVWGQGTTVTVSS
VL: EIVLTQSPGILSLSRGNRVALSCRASRSVNSSYLNWYQQKPGQAPRLLIYGASKRATGISDRFRGTGSGTDFTLTVARLEPEDIAVYYCQHYGAFGQGTKLEIK
notes: as for B1
Turning to B3, the results for the EC50 in assay [19], in assay [21] and in assay [23] were 91.1 nM, 55.1 nM and 3.5 nM, respectively. In addition, the binding result was “no binding” in assay [3]; “no binding” in assay [12]; “no binding” in [5]; “no binding” in assay [20]; “no binding” in assay [6]; “no binding (tested: about 4x10^5 pM (last point))” in assay [22].

The record behind these values is patent publication US20200010567A1 (NEURIMMUNE, published 2020).
